Experimental data taken from paper PMC9864903, “Imaging of the Glucose-Dependent Insulinotropic Polypeptide Receptor Using a Novel Radiolabeled Peptide Rationally Designed Based on Endogenous GIP and Synthetic Exendin-4 Sequences” (Pharmaceuticals, 2022).

Key:
[1] = post-production stability of the 68Ga-labeled product at room temperature (UV-Radio-HPLC); type: physicochemical; details: ambient temperature, for at least 2 h, with addition of ascorbic acid
Description: The ^68Ga-labeling procedure was optimized in terms of the radiochemical yield and required optimization of such factors as temperature, heating time, radical scavenger content, buffer concentration, pH, and product purification mean. The labeling was reproducible with a high non-decay corrected radiochemical yield of 61.1 ± 2.9% and a molar activity of 59.8 ± 4.4 MBq/nmol at the end of the synthesis (Figure 2). The radioactivity at the end of the synthesis was 424 ± 29 MBq with a radiochemical purity of 94.5 ± 0.3% (for the chromatogram, see Supplementary Materials, Figure S1). […]
The ^68Ge/^68Ga generator (pharmaceutical grade, GalliaPharm®, Eckert & Ziegler, Berlin, Germany) eluate was fractionated, and the top fraction of 3.5 mL containing approximately 90% of the radioactivity was collected for the radiolabeling. […] The radiochemical purity and the peptide concentration in the product were determined by high-pressure liquid chromatography (HPLC). […] The stability of the product at room temperature was monitored for 2 h and assessed by UV-Radio-HPLC. […] The total radioactivity of the product was then measured in an ionization chamber. The radioactivity recovery from the analytical column was controlled by performing an analysis of the product, generator eluate, and the product spiked with the generator eluate with and without column. […]

[2] = type: in vitro ADME; details: 37 °C, polyacrylamide gel electrophoresis with autoradiography
Procedure: Stability of [^68Ga]Ga-GIP-C803 was studied in human plasma, wherein the agent was incubated at 37 °C for under 30 s, 5 min, 45 min, and 90 min. Thereafter, the samples were analyzed by polyacrylamide gel electrophoresis. To enable the interpretation of the results, a number of references were applied along with the molecular weight marker (Figure S2). The gel was imaged by GelDoc Go Imaging System (Biorad, Hercules, CA, USA) for protein/peptide signals and, thereafter, exposed to a phosphor-imager screen overnight and digitalized using the Cyclone Phosphor Imager system (PerkinElmer) for radioactivity signals. The amount of the sample radioactivity loaded on the gel was controlled by a reference drop of the same sample volume on a filter paper exposed to the same screen. The images were analyzed by ImageJ (NIH, Bethesda, MD, USA) and Image Lab (Biorad) software.
Radiolabeling of C803‐GIP
Figure 1S. Typical HPLC-chromatograms with UV absorption profile (lower panel) and radioactivity signal profile (upper panel) of [68Ga]Ga-C803-GIP.
Stability of [68Ga]Ga‐GIP‐C803 in human plasma
Stability of [68Ga]Ga-GIP-C803 was studied in human plasma, wherein the agent was incubated at 37 °C for under 30 seconds, 5 min, 45 min and 90 min. Thereafter, the samples were analyzed by polyacrylamide gel electrophoresis. […] The images were analyzed by ImageJ (NIH, US) and Image Lab (Biorad) software. […]

**Q.** Which “radiochemical purity on post-production storage (stability)” value [1] does the source give for `CC[C@H](C)[C@H](NC(=O)[C@H](CO)NC(=O)[C@H](Cc1ccc(O)cc1)NC(=O)[C@H](CC(=O)O)NC(=O)[C@H](CO)NC(=O)[C@@H](NC(=O)[C@H](Cc1ccccc1)NC(=O)[C@@H](NC(=O)CNC(=O)[C@H](CCC(=O)O)NC(=O)[C@@H](C)NC(=O)[C@@H](N)Cc1ccc(O)cc1)[C@@H](C)O)[C@@H](C)CC)C(=O)N[C@@H](C)C(=O)N[C@@H](CC(C)C)C(=O)N[C@@H](CC(=O)O)C(=O)N[C@@H](CCCCN)C(=O)N[C@H](C(=O)N[C@@H](Cc1c[nH]cn1)C(=O)N[C@@H](CCC(N)=O)C(=O)N[C@@H](CCC(N)=O)C(=O)N[C@@H](CCC(=O)O)C(=O)N[C@@H](Cc1ccccc1)C(=O)N[C@H](C(=O)N[C@@H](CCC(=O)O)C(=O)N[C@@H](Cc1c[nH]c2ccccc12)C(=O)N[C@@H](CC(C)C)C(=O)N[C@@H](CCCCN)C(=O)N[C@@H](C)C(=O)NCC(=O)NCC(=O)N[C@@H](Cc1c[nH]cn1)C(=O)N1CCC[C@H]1C(=O)N[C@@H](CO)C(=O)NCC(=O)N[C@@H](C)C(=O)N1CCC[C@H]1C(=O)N1CCC[C@H]1C(=O)N1CCC[C@H]1C(=O)N[C@@H](CO)C(=O)N[C@@H](CSCCS(=O)(=O)CCN1CCN(CC(=O)O)CCN(CC(=O)O)CCN(CC(=O)O)CC1)C(N)=O)[C@@H](C)CC)[C@@H](C)CC` [[^68Ga]Ga-C803-GIP, metal not drawn] here?
**A.** Its value is “over 91%”.

**Q.** What about the “time stable in human plasma” value ([2]; incubated <30 s, 5, 45, 90 min) of the same molecule?
**A.** Its value is “at least 90 min”.

**Q.** And the “stability in human plasma (in words)” value ([2]; up to 90 min)?
**A.** Its value is “stable”.
